Data on 31 molecules can be found in US20240092919A1 (Ablynx, published 2024).

Sequences and labels used below:
T1: Cynomolgus TCR(AEA41865/AEA41866)-zipper protein (cynomolgus monkey)
T1 construct: also called cyTCR-zipper protein; cynoTCR zipper
T1 TCR alpha: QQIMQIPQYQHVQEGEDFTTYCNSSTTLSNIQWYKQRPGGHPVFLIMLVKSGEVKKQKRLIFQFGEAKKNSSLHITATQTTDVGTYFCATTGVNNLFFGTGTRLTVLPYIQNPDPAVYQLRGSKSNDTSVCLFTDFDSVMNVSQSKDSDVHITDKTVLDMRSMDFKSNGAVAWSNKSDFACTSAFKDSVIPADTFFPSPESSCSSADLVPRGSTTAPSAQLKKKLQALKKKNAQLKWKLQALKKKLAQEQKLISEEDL
T1 TCR beta: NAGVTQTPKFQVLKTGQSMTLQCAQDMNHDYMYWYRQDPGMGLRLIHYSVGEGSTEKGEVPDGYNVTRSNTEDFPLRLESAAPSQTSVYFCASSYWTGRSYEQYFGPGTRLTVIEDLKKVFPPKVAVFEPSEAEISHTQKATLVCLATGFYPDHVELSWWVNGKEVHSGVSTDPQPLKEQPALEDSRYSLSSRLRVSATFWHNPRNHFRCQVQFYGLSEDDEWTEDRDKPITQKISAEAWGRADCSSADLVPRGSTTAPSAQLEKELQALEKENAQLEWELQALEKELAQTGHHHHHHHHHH

B1: T017000406 (VHH)
VHH: EVQLVESGGGVVQPGGSLRLSCVASGYVHQINFYGWYRQAPGKEREKVAHISIGDQTDYADSAKGRFTISRDESKNMVYLQMNSLRPEDTALYFCRAMSRIWPYDYWGQGTLVTVSS
B2: T017000434 (VHH)
VHH: EVQLVESGGGVVQPGGSLRLSCVASGSVHKLNFYGWYRQAPGKEREKVAHISIGDQTDYADSAKGRFTISRDESKNMVYLQMNSLRPEDTALYFCRAMSRIYPYDYWGQGTLVTVSS
B3: T017000413 (VHH)
VHH: EVQLVESGGGVVQPGGSLRLSCVASWDVHQLNFYGWYRQAPGKEREKVAHISIGDQTDYADSAKGRFTISRDESKNMVYLQMNSLRPEDTALYFCRAMSKIWPYDYWGQGTLVTVSS
B4: T017000515 (VHH)
VHH: EVQLVESGGGVVQPGGSLRLSCVASGAVHKINFLGWYRQAPGKEREKVAHISIGDQTDYADSAKGRFTISRDESKNMVYLQMNSLRPEDTALYFCRAMSRIWPYDYWGQGTLVTVSS
B5: T017000473 (VHH)
VHH: EVQLVESGGGVVQPGGSLRLSCVASGYVHQINFYGWYRQAPGKEREKVAHISIGDQTDYADSAKGRFTISRDESKNMVYLQMNSLRPEDTALYFCRAMSRIYPYDYWGQGTLVTVSS
B6: T017000432 (VHH)
VHH: EVQLVESGGGVVQPGGSLRLSCVASGSVHKLNFYGWYRQAPGKEREKVAHISIGDQTDYADSAKGRFTISRDESKNMVYLQMNSLRPEDTALYFCRAMSKIWPYDYWGQGTLVTVSS
B7: T017000411 (VHH)
VHH: EVQLVESGGGVVQPGGSLRLSCVASWDVHKINFYGWYRQAPGKEREKVAHISIGDQTDYADSAKGRFTISRDESKNMVYLQMNSLRPEDTALYFCRAMSRIWPYDYWGQGTLVTVSS
B8: T017000450 (VHH)
VHH: EVQLVESGGGVVQPGGSLRLSCVASGYVHQINFLGWYRQAPGKEREKVAHISIGDQTDYADSAKGRFTISRDESKNMVYLQMNSLRPEDTALYFCRAMSRIWPYDYWGQGTLVTVSS
B9: T017000408 (VHH)
VHH: EVQLVESGGGVVQPGGSLRLSCVASGSVHKINFYGWYRQAPGKEREKVAHISIGDQTDYADSAKGRFTISRDESKNMVYLQMNSLRPEDTALYFCRAMSRIWPYDYWGQGTLVTVSS
B10: T017000550 (VHH)
VHH: EVQLVESGGGVVQPGGSLRLSCVASGSVHQINFLGWYRQAPGKEREKVAHISIGDQTDYADSAKGRFTISRDESKNMVYLQMNSLRPEDTALYFCRAMSRIYPYDWWGQGTLVTVSS
B11: T017000418 (VHH)
VHH: EVQLVESGGGVVQPGGSLRLSCVASGAVHKLNFYGWYRQAPGKEREKVAHISIGDQTDYADSAKGRFTISRDESKNMVYLQMNSLRPEDTALYFCRAMSRIYPYDYWGQGTLVTVSS
B12: T017000521 (VHH)
VHH: EVQLVESGGGVVQPGGSLRLSCVASGSVHQLNFYGWYRQAPGKEREKVAHISIGDQTDYADSAKGRFTISRDESKNMVYLQMNSLRPEDTALYFCRAMSRIWPYDYWGQGTLVTVSS
B13: T017000442 (VHH)
VHH: EVQLVESGGGVVQPGGSLRLSCVASGYVHKLNFYGWYRQAPGKEREKVAHISIGDQTDYADSAKGRFTISRDESKNMVYLQMNSLRPEDTALYFCRAMSRIYPYDYWGQGTLVTVSS
B14: T017000499 (VHH)
VHH: EVQLVESGGGVVQPGGSLRLSCVASGYVHKLNFLGWYRQAPGKEREKVAHISIGDQTDYADSAKGRFTISRDESKNMVYLQMNSLRPEDTALYFCRAMSRIWPYDYWGQGTLVTVSS
B15: T017000443 (VHH)
VHH: EVQLVESGGGVVQPGGSLRLSCVASWDVHQINFYGWYRQAPGKEREKVAHISIGDQTDYADSAKGRFTISRDESKNMVYLQMNSLRPEDTALYFCRAMSKIYPYDYWGQGTLVTVSS
B16: T017000530 (VHH)
VHH: EVQLVESGGGVVQPGGSLRLSCVASGAVHKLNFLGWYRQAPGKEREKVAHISIGDQTDYADSAKDRFTISRDESKNMVYLQMNSLRPEDTALYFCRAMSRIYPYDYWGQGTLVTVSS
B17: T017000498 (VHH)
VHH: EVQLVESGGGVVQPGGSLRLSCVASGAVHKINFYGWYRQAPGKEREKVAHISIGDQTDYADSAKGRFTISRDESKNMVYLQMNSLRPEDTALYFCRAMSRIWPYDWWGQGTLVTVSS
B18: T017000509 (VHH)
VHH: EVQLVESGGGVVQPGGSLRLSCVASGAVHKINFLGWYRQAPGKEREKVAHISIGDQTDYADSAKGRFTISRDESKNMVYLQMNSLRPEDTALYFCRAMSKIWPYDWWGQGTLVTVSS
B19: T017000419 (VHH)
VHH: EVQLVESGGGVVQPGGSLRLSCVASGAVHKLNFYGWYRQAPGKEREKVAHISIGDQTDYADSAKGRFTISRDESKNMVYLQMNSLRPEDTALYFCRAMSRIWPYDYWGQGTLVTVSS
B20: T017000531 (VHH)
VHH: EVQLVESGGGVVQPGGSLRLSCVASGSVHKINFLGWYRQAPGKEREKVAHISIGDQTDYADSAKGRFTISRDESKNMVYLQMNSLRPEDTALYFCRAMSRIWPYDWWGQGTLVTVSS
B21: T017000410 (VHH)
VHH: EVQLVESGGGVVQPGGSLRLSCVASGYVHKLNFYGWYRQAPGKEREKVAHISIGDQTDYADSAKGRFTISRDESKNMVYLQMNSLRPEDTALYFCRAFSRIWPYDWWGQGTLVTVSS
B22: T017000539 (VHH)
VHH: EVQLVESGGGVVQPGGSLRLSCVASGYVHKINFYGWYRQAPGKEREKVAHISIGDQTDYADSAKGRFTISRDESKNMVYLQMNSLRPEDTALYFCRAMSRIWPYDWWGQGTLVTVSS
B23: T017000505 (VHH)
VHH: EVQLVESGGGVVQPGGSLRLSCVASGDVHQLNFLGWYRQAPGKEREKVAHISIGDQTDYADSAKGRFTISRDESKNMVYLQMNSLRPEDTALYFCRAFSKIYPYDYWGQGTLVTVSS
B24: T017000518 (VHH)
VHH: EVQLVESGGGVVQPGGSLRLSCVASYSVHQLNFLGWYRQAPGKEREKVAHISIGDQTDYADSAKGRFTISRDESKNMVYLQMNSLRPEDTALYFCRAMSRIWPYDYWGQGTLVTVSS
B25: T017000461 (VHH)
VHH: EVQLVESGGGVVQPGGSLRLSCVASGDVHQINFYGWYRQAPGKEREKVAHISIGDQTDYADSAKGRFTISRDESKNMVYLQMNSLRPEDTALYFCRAMSRIWPYDYWGQGTLVTVSS
B26: T017000440 (VHH)
VHH: EVQLVESGGGVVQPGGSLRLSCVASWDVHKLNFYGWYRQAPGKEREKVAHISIGDQTDYADSAKGRFTISRDESKNMVYLQMNSLRPEDTALYFCRAMSKIWPYDYWGQGTLVTVSS
B27: T017000538 (VHH)
VHH: EVQLVESGGGVVQPGGSLRLSCVASGYVHKLNFYGWYRQAPGKEREKVAHISIGDQTDYADSAKGRFTISRDESKNMVYLQMNSLRPEDTALYFCRAMSRIWPYDYWGQGTLVTVSS
B28: T017000415 (VHH)
VHH: EVQLVESGGGVVQPGGSLRLSCVASWDVHQINFYGWYRQAPGKEREKVAHISIGDQTDYADSAKGRFTISRDESKNMVYLQMNSLRPEDTALYFCRAMSRIWPYDYWGQGTLVTVSS
B29: T017000547 (VHH)
VHH: EVQLVESGGGVVQPGGSLRLSCVASGAVHKLNFYGWYRQAPGKEREKVAHISIGDQTDYADSAKGRFTISRDESKNMVYLQMNSLRPEDTALYFCRAFSRIWPYDYWGQGTLVTVSS
B30: T017000554 (VHH)
VHH: EVQLVESGGGVVQPGGSLRLSCVASYDVHQINFLGWYRQAPGKEREKVAHISIGDQTDYADSAKGRFTISRDESKNMVYLQMNSLRPEDTALYFCRAMSKIYPYDYWGQGTLVTVSS
B31: T017000423 (VHH)
VHH: EVQLVESGGGVVQPGGSLRLSCVASGSVHQINFLGWYRQAPGKEREKVAHISIGDQTDYADSAKGRFTISRDESKNMVYLQMNSLRPEDTALYFCRAMSRIWPYDYWGQGTLVTVSS

This test concerns the target T1, Cynomolgus …. Kind of test: SPR ProteOn off-rate screen.
Source text: Unique ISVD clones, i.e. clones with a unique sequence, were subsequently selected and screened to determine their off-rate. To this purpose, the ISVD containing periplasmic extracts were screened on huTCR-zipper and cyTCR-zipper protein by SPR on a ProteOn XPR36 instrument. The zipper proteins were immobilized on a GLC sensor chip (between 4300 and 5100RU) via amine coupling chemistry, using EDC/sulfo-NHS for activation of the carboxyl groups on the chip surface (running buffer: HBS-EP+, pH7.4). Periplasmic extracts were injected at 1/10 dilution for 2 min (at a flow rate of 45 μL/min) and dissociation was followed for 900 s. A pulse of 100 s of 3 M MgCl2 at 45 μL/min was used for regeneration. […] Processed sensorgrams were fitted with the Langmuir model (1:1 interaction) using ProteOn Manager 3.1.0 (Version 3.1.0.6) software.
On to B1, for which the off-rate (koff) is 0.00138 s⁻¹. Regarding B2, the koff worked out at 0.00153 s⁻¹. B3 returned a koff of 0.000238 s⁻¹. In turn, B4 had an off-rate constant (koff) of 0.00126 s⁻¹. B5 yielded an off-rate (koff) of 0.00238 s⁻¹. On to B6, for which the koff worked out at 0.000142 s⁻¹.

B7 displayed a koff of 0.00156 s⁻¹. With B8 the figure was 0.0017 s⁻¹; with B9, 0.000714 s⁻¹; with B10, 0.0095 s⁻¹.

B11 gave a koff of 0.00187 s⁻¹. Consider B12, for which the off-rate constant (koff) worked out at 0.00275 s⁻¹. With B13 the figure was 0.00146 s⁻¹.

As to B14, the off-rate constant (koff) was found to be 0.00106 s⁻¹. Under B15 stands 0.000209 s⁻¹; under B16, 0.00182 s⁻¹. For the molecule B17, the off-rate constant (koff) amounted to 0.00223 s⁻¹. Molecule B18 returned a koff of 0.000609 s⁻¹. In turn, B19 came in with a koff of 0.0011 s⁻¹.

With B20, the koff came to 0.00232 s⁻¹. In turn, B21 yielded a koff of 0.00159 s⁻¹.

With B22, the koff was 0.00151 s⁻¹.

In turn, B23 yielded an off-rate (koff) of 0.00143 s⁻¹. Turning to B24, the off-rate constant (koff) was determined as 0.0268 s⁻¹. For B25, the koff worked out at 0.00206 s⁻¹. Under B26 stands 0.000346 s⁻¹; under B27, 0.000766 s⁻¹.

Molecule B28 had a dissociation rate constant (koff) of 0.000918 s⁻¹. With B29 the figure was 0.00156 s⁻¹; with B30, 0.000767 s⁻¹.

B31 returned a dissociation rate constant (koff) of 0.00184 s⁻¹.

As usually defined, the koff is a measure of how fast the partners let go of each other.
